Ends that are not written are not given here. * marks the point of attachment. LacNAc = N-acetyllactosamine (disaccharide N-linked to the Asn side chain), CC(=O)N[C@@H]1[C@@H](O)[C@H](O[C@@H]2O[C@H](CO)[C@H](O)[C@H](O)[C@H]2O)[C@@H](CO)O[C@H]1*; βGlcNAc = CC(=O)N[C@@H]1[C@@H](O)[C@H](O)[C@@H](CO)O[C@H]1*

Experimental findings from article PMC4610397 (Cellular and molecular bioengineering, 2015) are described below.

Series [1] deals with the molecule itself. The series can be described thus: circular dichroism + transmission electron microscopy. A general note: Circular dichroism is the unequal absorption of left and right circularly polarised light.
A further series concerns the target T1, Q11.
T1 peptide: Ac-QQKFQFQFEQQ-NH2
The series can be described thus: co-sedimentation.

As to N(LacNAc)SGSGQQKFQFQFEQQ-NH2 [LacNAc-Q11], in series [1], the binding result is “binds”.
With N(βGlcNAc)SGSGQQKFQFQFEQQ-NH2 [GlcNAc-Q11], the binding result (with Q11; in series [1]) was “binds” in each case.
